The record followed here is patent US20240360238A1 (MAGENTA THERAPEUTICS, published 2024).

Numbering of substitutions follows the chain as printed.

Test in all cases: cell-based or functional assay
For assay [1], the target named is T1, CD117 on Kasumi-1 cells and primary human CD34+ bone marrow cells (human, UniProt P10721 26-976).
Assay [2] deals with T1, CD117 on Kasumi-1 cells and primary …. This is another data set of the same source.
For assay [3] the target is unchanged. The source holds these as a separate data set.

T1 sequence (P10721 26-976): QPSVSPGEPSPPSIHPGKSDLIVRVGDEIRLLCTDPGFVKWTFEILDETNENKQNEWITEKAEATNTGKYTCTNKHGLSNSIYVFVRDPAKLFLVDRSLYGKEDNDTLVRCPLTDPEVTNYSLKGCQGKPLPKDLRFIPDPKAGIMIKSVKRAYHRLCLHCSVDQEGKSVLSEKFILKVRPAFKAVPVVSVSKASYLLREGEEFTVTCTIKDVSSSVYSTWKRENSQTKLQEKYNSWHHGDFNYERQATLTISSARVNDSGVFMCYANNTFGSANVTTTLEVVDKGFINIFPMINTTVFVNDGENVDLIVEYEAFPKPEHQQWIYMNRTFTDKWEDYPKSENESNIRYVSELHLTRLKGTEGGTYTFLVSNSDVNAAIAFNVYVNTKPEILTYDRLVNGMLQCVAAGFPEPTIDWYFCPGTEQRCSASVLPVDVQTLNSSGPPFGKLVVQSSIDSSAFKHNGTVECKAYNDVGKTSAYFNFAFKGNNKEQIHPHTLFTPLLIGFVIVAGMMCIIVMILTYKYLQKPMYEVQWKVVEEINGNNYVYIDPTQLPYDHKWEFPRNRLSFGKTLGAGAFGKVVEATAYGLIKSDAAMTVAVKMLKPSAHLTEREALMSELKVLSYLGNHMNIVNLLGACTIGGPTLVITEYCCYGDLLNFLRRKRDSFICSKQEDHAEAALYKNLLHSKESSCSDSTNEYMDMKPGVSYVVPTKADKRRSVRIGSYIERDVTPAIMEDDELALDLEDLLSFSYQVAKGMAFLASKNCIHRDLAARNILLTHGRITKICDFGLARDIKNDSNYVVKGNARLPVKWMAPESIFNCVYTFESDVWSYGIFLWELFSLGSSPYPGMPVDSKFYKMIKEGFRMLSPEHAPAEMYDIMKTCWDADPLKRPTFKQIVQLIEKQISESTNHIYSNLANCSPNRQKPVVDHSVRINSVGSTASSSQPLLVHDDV

B1: CD117-ADC (anti-CD117 antibody CK6 conjugated to amatoxin) (antibody, V domains shown)
VH: QVQLVQSGAAVKKPGESLKISCKGSGYRFTSYWIGWVRQMPGKGLEWMGIIYPGDSDTRYSPSFQGQVTISAGKSISTAYLQWSSLKASDTAMYYCARHGRGYNGYEGAFDIWGQGTMVTVSS
VL: AIQLTQSPSSLSASVGDRVTITCRASQGISSALAWYQQKPGKAPKLLIYDASSLESGVPSRFSGSGSGTDFTLTISSLQPEDFATYYCQQFNSYPLTFGGGTKVEIK
modifications: antibody conjugated to an amatoxin; site and linker not stated for this assay
On to B1, for which, in assay [1], the “IC50, in vitro killing of Kasumi-1 cells (Celltiter Glo)” value was 1600 nM and the “IC50, in vitro killing of primary human CD34+ bone marrow cells” value was found to be 21000 nM. Further, in assay [2], the “% efficacy, killing of primary human CD34+CD90+ cells” value (from here on “% efficacy, killing”) stood at 70.8% and the “IC50, killing of primary human CD34+CD90+ cells (5 days, flow cytometry counts)” value (“IC50, killing” below) is 0.00977 nM. Moreover, the “IC50 (M), Kasumi-1 cell killing (Celltiter Glo, 3 days)” value (“IC50 (M), Kasumi-1 cell killing” for short) in assay [3] amounted to 1.48e-11 M.

B2: HC-249/LC-249 ADC (Ab249 conjugated to an amatoxin) (antibody, V domains shown)
VH: B1 VH with Q1E, A10E, S31T, Y32S, G73D, R101L, M118L
VL: B1 VL with A1D, L4M, S30G, S53N, S56T, F91L, S93G, G100Q, K103R, V104L
modifications: antibody conjugated to an amatoxin; site not stated
As for B2, in assay [2], the “% efficacy, killing” value was 52% and the “IC50, killing” value was 0.00667 nM. Besides, the “IC50 (M), Kasumi-1 cell killing” value in assay [3] was 2.5e-11 M.

B3: HC-85/LC-85 ADC (Ab85 conjugated to an amatoxin) (antibody, V domains shown)
VH: EVQLVQSGAEVKKPGESLKISCKGSGYSFTNYWIGWVRQMPGKGLEWMAIINPRDSDTRYRPSFQGQVTISADKSISTAYLQWSSLKASDTAMYYCARHGRGYEGYEGAFDIWGQGTLVTVSS
VL: DIQMTQSPSSLSASVGDRVTITCRSSQGIRSDLGWYQQKPGKAPKLLIYDASNLETGVPSRFSGSGSGTDFTLTISSLQPEDFATYYCQQANGFPLTFGGGTKVEIK
modifications: antibody conjugated to an amatoxin; site not stated
Turning to B3, in assay [2], the “% efficacy, killing” value was 71.2% and the “IC50, killing” value is 0.00574 nM. The “IC50 (M), Kasumi-1 cell killing” value in assay [3] was determined as 1.76e-11 M.
